According to US20230374147A1 (HUMMINGBIRD BIOSCIENCE PTE, published 2023):

How the values were obtained:
[1] = biological target: T1, Cyno TACI-His (Sino Biological, 90976-C08H) (cynomolgus macaque, UniProt G7PTR7 1-165); test: ELISA, coated Cyno TACI-His
T1 construct: Bought protein; also called cynomolgous macaque TACI; CyTACI
T1 sequence: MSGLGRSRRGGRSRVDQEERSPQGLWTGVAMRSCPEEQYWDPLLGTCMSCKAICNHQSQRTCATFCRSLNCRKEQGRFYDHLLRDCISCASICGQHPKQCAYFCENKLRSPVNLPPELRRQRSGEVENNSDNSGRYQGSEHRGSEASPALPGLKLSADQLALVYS

[2] = biological target: T2, His-tagged cynomolgous macaque BCMA (Acro Biosystems, BCA-C52H7) (cynomolgus macaque, UniProt Q02223 1-54 (human entry)); test: ELISA, coated Cyno BCMA-His
T2 construct: Bought protein; also called cyno BCMA; CyBCMA; not shown: His tag

[3] = biological target: T2, His-tagged cynomolgous macaque BCMA …; test: BLI, His-tagged cynomolgus BCMA on HIS1K tip
[4] = biological target: T3, His-tagged human BCMA (Acro Biosystems, Cat. #BCA-H522y) (human, UniProt Q02223 1-54); test: BLI, His-tagged human BCMA on HIS1K tip
T3 construct: also called huBCMA; P1; not shown: His tag
T3 sequence: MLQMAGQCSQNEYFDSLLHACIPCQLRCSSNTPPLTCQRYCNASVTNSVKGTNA

[5] = biological target: T4, human BCMA expressed on cells (human, UniProt Q02223 1-184); test: flow cytometry, H929 cells (BCMA+)
T4 construct: the cell line is named under assay; also called wildtype human BCMA
T4 sequence: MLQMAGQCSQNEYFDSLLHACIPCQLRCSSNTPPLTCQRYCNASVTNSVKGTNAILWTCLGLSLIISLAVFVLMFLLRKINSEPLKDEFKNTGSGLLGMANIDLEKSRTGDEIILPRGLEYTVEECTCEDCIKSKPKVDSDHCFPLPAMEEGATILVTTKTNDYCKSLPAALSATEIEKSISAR

[6] = biological target: T3, His-tagged human BCMA (Acro Biosystems, …); test: ELISA, reference antibody, coated His-tagged antigen
[7] = biological target: T5, cynomolgous macaque BCMA expressed on CHOK1 cells; test: flow cytometry, CHOK1 cells transiently expressing cynomolgus BCMA
T5 construct: also called cyno BCMA on cells

B1: J6M0 (antibody, V domains shown)
VH: QVQLVQSGAEVKKPGSSVKVSCKASGGTFSNYWMHWVRQAPGQGLEWMGATYRGHSDTYYNQKFKGRVTITADKSTSTAYMELSSLRSEDTAVYYCARGAIYDGYDVLDNWGQGTLVTVSS
VL: DIQMTQSPSSLSASVGDRVTITCSASQDISNYLNWYQQKPGKAPKLLIYYTSNLHSGVPSRFSGSGSGTDFTLTISSLQPEDFATYYCQQYRKLPWTFGQGTKLEIK
notes: also called J6M0-hIgG1; anti-BCMA
With B1 the binding result [1] was “no binding (tested: log M about -7.7 (3 ug/ml per paragraph 742))”, the EC50 [2] was 0.015 nM and the “Cyno BCMA response” value [3] was 2.16. The “Human BCMA response” value [4] was 2.53, the EC50 [5] was 1.77 nM and the EC50 [6] was 0.0126 µg/mL. B1: binds [7].
